Sequences and labels used below:
B1: L5 isolate with insertion SEQ ID NO: 392 (other)
chain: EPKSCDKTHTCPPCPAPELLGGPSVFLFPPKPKDTLMISRTPEVTCVVVDVSHEDPEVKFNWYVDGVEVHNAKTKPREEQYNSTYRVVSVLTVLHQDWLNGKEYKCKVSNKALPAPIEKTISKAKGQPREPQVYTLPPSRDELTKNQVSLTCLVKGFYPSDIAVEWESNGGCPHMFPWCGGGQPENNYKTTPPVLDSDGSFFLYSKLTVDKSRWQQGNVFSCSVMHEALHNHYTQKSLSLSPGK
B2: L5 isolate with insertion SEQ ID NO: 398 (other)
chain: B1 chain with P173Q, H174L, M175G, F176S, P177M, W178H
B3: L5 isolate with insertion SEQ ID NO: 408 (other)
chain: B1 chain with P173Q, H174K, M175G, F176W, P177V, W178F
B4: L5 isolate with insertion SEQ ID NO: 421 (other)
chain: B1 chain with P173N, H174P, M175H, F176R, P177T, W178P
B5: L5 isolate with insertion SEQ ID NO: 403 (other)
chain: B1 chain with H174A, M175N, F176W, P177G, W178T
B6: L5 isolate with insertion SEQ ID NO: 413 (other)
chain: B1 chain with P173M, H174T, M175Q, F176Y, P177N
B7: L5 isolate with insertion SEQ ID NO: 437 (other)
chain: B1 chain with P173N, H174V, M175L, F176D, P177L, W178F
B8: L5 isolate with insertion SEQ ID NO: 415 (other)
chain: B1 chain with P173Y, H174I, M175T, F176Q, P177K, W178L
B9: L5 isolate with insertion SEQ ID NO: 411 (other)
chain: B1 chain with P173N, H174M, M175L, F176W, P177G, W178S
B10: L5 isolate with insertion SEQ ID NO: 402 (other)
chain: B1 chain with P173E, H174L, M175Q, F176E, P177R
B11: L5 isolate with insertion SEQ ID NO: 397 (other)
chain: B1 chain with H174F, M175E, P177T, W178Q
B12: L5 isolate with insertion SEQ ID NO: 419 (other)
chain: B1 chain with P173Q, H174N, M175R, F176S, P177Y
B13: L5 isolate with insertion SEQ ID NO: 406 (other)
chain: B1 chain with P173Y, H174Q, M175H, F176H, P177M, W178E
B14: L5 isolate with insertion SEQ ID NO: 417 (other)
chain: B1 chain with P173T, H174E, M175Q, F176V, P177M
B15: L5 isolate with insertion SEQ ID NO: 416 (other)
chain: B1 chain with P173E, H174T, M175H, F176Y, P177T, W178Y
B16: L5 isolate with insertion SEQ ID NO: 399 (other)
chain: B1 chain with P173Y, H174E, M175N, F176K, P177T, W178L
B17: L5 isolate with insertion SEQ ID NO: 405 (other)
chain: B1 chain with P173Q, M175H, F176I, P177M, W178Q
B18: L5 isolate with insertion SEQ ID NO: 420 (other)
chain: B1 chain with P173H, H174G, M175T, F176K, P177Q, W178F
B19: L5 isolate with insertion SEQ ID NO: 395 (other)
chain: B1 chain with P173I, H174L, M175N, P177Y, W178G
B20: L5 isolate with insertion SEQ ID NO: 396 (other)
chain: B1 chain with P173R, H174E, M175P, F176H, W178F
B21: L5 isolate with insertion SEQ ID NO: 418 (other)
chain: B1 chain with P173I, H174T, M175E, P177S, W178H
B22: L5 isolate with insertion SEQ ID NO: 393 (other)
chain: B1 chain with P173G, M175G, F176W, P177I, W178F
B23: L5 isolate with insertion SEQ ID NO: 404 (other)
chain: B1 chain with P173M, H174M, M175E, P177A, W178Q
B24: L5 isolate with insertion SEQ ID NO: 414 (other)
chain: B1 chain with P173V, H174N, M175T, F176W, P177W, W178S
B25: L5 isolate with insertion SEQ ID NO: 442 (other)
chain: B1 chain with P173N, H174V, M175L, F176D, P177L, W178F
B26: L5 isolate with insertion SEQ ID NO: 407 (other)
chain: B1 chain with P173M, H174V, M175P, P177S, W178M
B27: L5 isolate with insertion SEQ ID NO: 401 (other)
chain: B1 chain with P173M, H174V, M175P, P177S, W178M
B28: L5 isolate with insertion SEQ ID NO: 412 (other)
chain: B1 chain with P173M, H174Q, M175P, F176W, P177A, W178F
B29: L5 isolate with insertion SEQ ID NO: 409 (other)
chain: B1 chain with P173V, H174Y, M175D, F176V, P177K, W178K
B30: L6B isolate with insertion SEQ ID NO: 455 (other)
chain: EPKSCDKTHTCPPCPAPELLGGPSVFLFPPKPKDTLMISRTPEVTCVVVDVSHEDPEVKFNWYVDGVEVHNAKTKPREEQYNSTYRVVSVLTVLHQDWLNGKEYKCKVSNKALPAPIEKTISKAKGQPREPQVYTLPPSRDELGGCVSAATSRTCGGTKNQVSLTCLVKGFYPSDIAVEWESNGQPENNYKTTPPVLDSDGSFFLYSKLTVDKSRWQQGNVFSCSVMHEALHNHYTQKSLSLSPGK

Residue numbers refer to the chain shown, from its start. Names may count otherwise.
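Also: higher score means stronger binding and above about 3 to 5 exceeds background.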

In the first test the target is T1, human neonatal Fc receptor (hFcRn) (human, UniProt P55899 24-290; P61769 21-119).
T1 construct: Biotinylated in the ELISA, Octet and yeast assays; also called human FcRn; huFcRn
T1 sequence (P55899 24-290 limits assumed, chain 1 of 2): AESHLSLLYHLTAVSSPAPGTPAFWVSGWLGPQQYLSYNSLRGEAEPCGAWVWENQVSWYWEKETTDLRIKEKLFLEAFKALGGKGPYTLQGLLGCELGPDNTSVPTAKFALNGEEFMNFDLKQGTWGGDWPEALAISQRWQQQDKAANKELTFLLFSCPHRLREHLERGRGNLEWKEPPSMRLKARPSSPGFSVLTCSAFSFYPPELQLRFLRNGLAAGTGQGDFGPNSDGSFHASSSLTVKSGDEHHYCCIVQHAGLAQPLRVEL
T1 sequence (P61769 21-119 limits assumed, chain 2 of 2): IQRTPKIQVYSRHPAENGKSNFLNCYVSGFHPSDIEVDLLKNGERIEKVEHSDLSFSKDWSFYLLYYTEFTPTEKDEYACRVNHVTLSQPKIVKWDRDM
In words: phage ELISA pH 7.4. As for the experimental part:
(§1) Approximately 100 μL of biotinylated human FcRn at 2 μg/mL was added to the wells of MAXISORP™ plates coated with 10 μg/mL streptavidin. After washing with PBS plus 0.05% Tween 20 (PBST) five times, phage from the overnight cultures in MES buffer at pH 6.0 or pH 7.4 were added to the plates and incubated at room temperature for 1 hr. A horseradish peroxidase (HRP)-conjugated anti-M13 antibody was used to detect the binding phage, and the plates were scored by a microtiter plate reader using a wavelength in the visible range.
(§2) Binding was assessed by a quantitative enzyme-linked immunoadsorbent assay (ELISA). The ELISA scores reflect binding affinity, with higher scores meaning higher affinity. Typically, scores higher than about 3˜5 indicate binding above background. For library L5, the insertions are between the N169 and G170 according to the numbering in FIG. 2. For libraries 6A and 6B, the insertions are between L143 and T144 according to the numbering in FIG. 2.
B1: the ELISA score turned out to be 15.1.
Consider B2, for which the ELISA score turned out to be 0.4.
Same read-out and setting: the same measure for B3: 0.4; for B4: 0.3; for B5: 0.5.
Same read-out and setting: the result for B6 reads 0.5; that for B7, 0.3; that for B8, 0.7.
On the same count and under the same terms, the result for B9 reads 0.6; that for B10, 0.3.
For the molecule B11, the ELISA score was 1.8.
Take B12: the ELISA score amounted to 0.3.
Same read-out and setting: the same measure for B13: 0.4.
Take B14: the ELISA score came out at 0.3.
B15 registered an ELISA score of 0.5.
Still for that read-out and setting: the same measure for B16: 1.6.
The same measure, in the same setting: the same measure for B17: 0.4; for B18: 0.5; for B19: 23.5.
Same read-out and setting: the same measure for B20: 8.9.
On to B21, for which the ELISA score came out at 0.4.
Same read-out and setting: the result for B22 reads 28.4; that for B23, 2.3.
On to B24, for which the ELISA score was found to be 0.3.
Take B25: the ELISA score stood at 0.3.
Regarding B26, the ELISA score came out at 0.6.
Same read-out and setting: the result for B27 reads 0.6.
Turning to B28, the ELISA score was determined as 0.4.
B29 yielded an ELISA score of 0.7.
Still for that read-out and setting: the result for B30 reads 0.3.

For the next test, the target named is T1, human neonatal Fc receptor (hFcRn). The experiment in a line: phage ELISA pH 6. As for the experimental part: as §1, §2
Turning to B1, the ELISA score is 95.1.
Same read-out and setting: the result for B2 reads 86.5; that for B3, 72; that for B4, 60.9.
On the same count and under the same terms, the result for B5 reads 74.8; that for B6, 65.6; that for B8, 63.6.
On the same count and under the same terms, the same measure for B9: 68.6.
Consider B10, for which the ELISA score stood at 75.5.
Still for that read-out and setting: the same measure for B11: 87.3; for B12: 61; for B13: 73.1.
As for B14, the ELISA score is 62.2.
The same measure, in the same setting: the same measure for B15: 63; for B16: 86.3; for B17: 73.4.
In turn, B18 yielded an ELISA score of 61.
In the case of B19, the ELISA score turned out to be 89.5.
The same measure, in the same setting: the same measure for B20: 88.6.
Still for that read-out and setting: the same measure for B21: 61.2; for B22: 92.1; for B23: 74.2.
Molecule B24 returned an ELISA score of 65.2.
Same read-out and setting: the result for B28 reads 67.4.
As for B29, the ELISA score amounted to 71.2.
